In the Human Domainome abundance scans (Beltran et al. 2025):
± gives the uncertainty stated by the source.

B1: Far upstream element-binding protein 1, residues 184 to 257; numbered along this chain, Q96AE4 (parent)
chain: GNAVQEIMIPASKAGLVIGKGGETIKQLQERAGVKMVMIQDGPQNTGADKPLRITGDPYKVQQAKEMVLELIRD

Variants of: B1
Assay: abundance fitness (aPCA) (normalised: wild type 0, dead -1); higher = more abundant; growth selection in yeast, the domain comes from the species named
Details: Homo sapiens

Variant | abundance fitness
GNAVQEIMIPASKAGLVIGKGGETIKQLQERAGVKMVMIQDGPQNTGIDKPLRITGDPYKVQQAKEMVLELIRD [A48I] | 0.005 ± 0.057
GNAVQEIMIPASKAGLVIGKGGETIKILQERAGVKMVMIQDGPQNTGADKPLRITGDPYKVQQAKEMVLELIRD [Q27I] | -0.019 ± 0.062
GNADQEIMIPASKAGLVIGKGGETIKQLQERAGVKMVMIQDGPQNTGADKPLRITGDPYKVQQAKEMVLELIRD [V4D] | -0.063 ± 0.043
GNAVQEIMIPASKAGLVIGKGGETIKQLQERAGVKMVMIQDGPQNTGADKPLRITNDPYKVQQAKEMVLELIRD [G56N] | -0.668 ± 0.098
GNAVQEIMIPASKAGLVIGKGGETIKQLQERAGVKMVMIQDGPQNTGADKPLRITFDPYKVQQAKEMVLELIRD [G56F] | -0.971 ± 0.2
GNAVQEIRIPASKAGLVIGKGGETIKQLQERAGVKMVMIQDGPQNTGADKPLRITGDPYKVQQAKEMVLELIRD [M8R] | -0.074 ± 0.026
GNAVQEIMIPASKAGLVIGKGGETIKQLQKRAGVKMVMIQDGPQNTGADKPLRITGDPYKVQQAKEMVLELIRD [E30K] | -0.01 ± 0.042
GNAVQEIMIPASKAGLVIGKGGETIKQLQERAGVKMVMMQDGPQNTGADKPLRITGDPYKVQQAKEMVLELIRD [I39M] | 0.014 ± 0.04
GNAVQEIMIPASKAGLVIGKGGETIKQLQERAGVKMVMIQDGPQNTGADKPLRITGDPYKVQQAKEMVLDLIRD [E70D] | 0.046 ± 0.046
GNAVQEIMIPASKAGLVIGKGGETIKQLQERAGVIMVMIQDGPQNTGADKPLRITGDPYKVQQAKEMVLELIRD [K35I] | -0.158 ± 0.055
GNAVQEIMIPASKAGLVIGKGGETIKQLQERMGVKMVMIQDGPQNTGADKPLRITGDPYKVQQAKEMVLELIRD [A32M] | -0.009 ± 0.042
GNAVQEIMIPASKAGLVIGKGGETIKQLQERQGVKMVMIQDGPQNTGADKPLRITGDPYKVQQAKEMVLELIRD [A32Q] | -0.077 ± 0.04
GNAVQEIMIPASKAGLVIGKGGETIKQLQERAGVKMVMIQDPPQNTGADKPLRITGDPYKVQQAKEMVLELIRD [G42P] | -0.059 ± 0.035
GNAVQEIMIPASKAGLVIGKGGETIKQLQERAGVKMVMIQDWPQNTGADKPLRITGDPYKVQQAKEMVLELIRD [G42W] | -0.33 ± 0.037
GNAVQEIMIPASKAGLVIGKGGETIKQLGERAGVKMVMIQDGPQNTGADKPLRITGDPYKVQQAKEMVLELIRD [Q29G] | -0.142 ± 0.029
GNAVQEIMIPASKAGLMIGKGGETIKQLQERAGVKMVMIQDGPQNTGADKPLRITGDPYKVQQAKEMVLELIRD [V17M] | -0.08 ± 0.046
GNAVQEIMIPASKAGLVIGKGGETIKQLQERANVKMVMIQDGPQNTGADKPLRITGDPYKVQQAKEMVLELIRD [G33N] | -0.063 ± 0.046
GNAVQEIMIPASKAGLVIGKGGETIKQLQERAGVKMVMIQDGPQNTGADKQLRITGDPYKVQQAKEMVLELIRD [P51Q] | -0.108 ± 0.041
GNAVQEIMIPASKAGLVIGKGGETIKQLQERAGVKMVMIQDGPQNTGADKPLRITGDPYKVQQAKEMVLENIRD [L71N] | -0.242 ± 0.049

Variant | abundance fitness
GNAVQEIMIPASKAGYVIGKGGETIKQLQERAGVKMVMIQDGPQNTGADKPLRITGDPYKVQQAKEMVLELIRD [L16Y] | -0.045 ± 0.052
GNNVQEIMIPASKAGLVIGKGGETIKQLQERAGVKMVMIQDGPQNTGADKPLRITGDPYKVQQAKEMVLELIRD [A3N] | 0.057 ± 0.053
GNAVQEIMIPASKAGLVIGKGGETIKQLQERAGVKMVMIQDGPQNTGADKPLRICGDPYKVQQAKEMVLELIRD [T55C] | -0.065 ± 0.045
GNAVQEIMIPASKAGLVIGKGGETIKQLQERAGVKMVMIQGGPQNTGADKPLRITGDPYKVQQAKEMVLELIRD [D41G] | -0.009 ± 0.026
GNAVQEIMIPASKAQLVIGKGGETIKQLQERAGVKMVMIQDGPQNTGADKPLRITGDPYKVQQAKEMVLELIRD [G15Q] | -0.031 ± 0.039
GNAVQEIMIPASKAGLVIGKGGETIKQLQERAGVKMVMIQDGPQNTGADKPLRITGDPYKVQQAKCMVLELIRD [E66C] | -0.106 ± 0.039
GNAVQEIMIPASKAGLVIGKGGETIKQLQERAGVKMVMIQDGPQNTGADKPLRITGDPYKVQQAKEVVLELIRD [M67V] | -0.126 ± 0.029
GNAVQEIMIPASKAGLVIGKGGETIKQLQERAGVKMVMIQDGPQNTGADKPLRITGDPYKVQQAPEMVLELIRD [K65P] | -0.709 ± 0.043
GNAVQEIMIPASKAGLVIGKGGETIKQLQERAGVKMVMIQDGPQNTGADKPLRITGDPYKVQQAKEMVLELIRM [D74M] | -0.193 ± 0.067
GNAVQEIMIPASKAGLVIGKGGETIKQLQERAGVKMVMIQDGPQNTGADKPWRITGDPYKVQQAKEMVLELIRD [L52W] | -0.738 ± 0.044
GNAVQEIMIPASKAGLVIGKGGETIKQLQERAGVKMVMIQDGRQNTGADKPLRITGDPYKVQQAKEMVLELIRD [P43R] | -0.012 ± 0.03
GNAVQEIMIPASKAGLVIGKGGETIKQLQERAGVKMVMIQDGDQNTGADKPLRITGDPYKVQQAKEMVLELIRD [P43D] | -0.055 ± 0.05
GNAVQEIMIPASKAGLVIGKGGETIKQLQERAGVKMVMIQDGPQNTGADKPLRITGDPYKGQQAKEMVLELIRD [V61G] | -0.627 ± 0.03
GNAVQEIMIPASKAGLVIGKGGETPKQLQERAGVKMVMIQDGPQNTGADKPLRITGDPYKVQQAKEMVLELIRD [I25P] | -0.64 ± 0.048
GNAVQEIMIPASKAGLVIGKGGETHKQLQERAGVKMVMIQDGPQNTGADKPLRITGDPYKVQQAKEMVLELIRD [I25H] | -0.324 ± 0.057
GNAVQEIMIPASKAGLVIGKGGETIKQLQERAGVKMVMIQDGPQNTGADKPLRITGDPYYVQQAKEMVLELIRD [K60Y] | -0.233 ± 0.056
GNAVQEIMIPASKAGLVIGKGGETIKQLQERAGVKMVMIQDGPQNTGADKPLRITGDPYIVQQAKEMVLELIRD [K60I] | -0.653 ± 0.072
GNAVQEIMIPASKAGLVIGKGGETIKQLQERAGVKMVMIQDGPQNTGADKPLRITGDPYKVQQAKEMVLELLRD [I72L] | 0.01 ± 0.03
